Laboratory results as given in patent publication US20040049009A1, “Methods for improving the antagonistic/agonistic properties of peptidic antagonists/agonists of the corticotropin-releasing factor receptor (crfr)” (published 2004).
Ends that are not written are not given here.

B1: [Ala^21,23Arg^22]Svg (peptide)
peptide: QGPPISIDLSLELLRKMIEIARAEKEKQQAANNRLLLDTI
modifications: ends and bridges not checked
B2: [Ala^21]Svg (peptide)
peptide: QGPPISIDLSLELLRKMIEIAKQEKEKQQAANNRLLLDTI
modifications: ends and bridges not checked

Experiments:
[1] = molecular target: T1, rat CRF receptor, type 1 (rat, UniProt P35353); assay: SPA competition with 0.05 nM [125I-Tyr0]h/rCRF, HEK-293 membranes; 95% CI (0.06-0.51)
[2] = molecular target: T1, rat CRF receptor, type 1; assay: SPA competition with 0.05 nM [125I-Tyr0]h/rCRF, HEK-293 membranes; 95% CI (0.15-0.49)

Row | Binder | IC50 [1] [nM] | IC50 [2] [nM]
1 | B1 | 0.29 | –
2 | B2 | – | 0.32
